Data from paper PMC6631030, “Unraveling Sugar Binding Modes to DC-SIGN by Employing Fluorinated Carbohydrates” (Molecules, 2019).

Molecular target: the molecule itself
Assay: negative-stain TEM; purified refolded DC-SIGN ECD, negative staining, Jeol JEM-1230

B1: dendritic cell-specific intercellular adhesion molecule 3-grabbing non-integrin (DC-SIGN) full extracellular domain, tetramer (domain or fragment, UniProt Q9NNX6 70-404, looked up)
chain: EQSRQDAIYQNLTQLKAAVGELSEKSKLQEIYQELTQLKAAVGELPEKSKLQEIYQELTRLKAAVGELPEKSKLQEIYQELTWLKAAVGELPEKSKMQEIYQELTRLKAAVGELPEKSKQQEIYQELTRLKAAVGELPEKSKQQEIYQELTRLKAAVGELPEKSKQQEIYQELTQLKAAVERLCHPCPWEWTFFQGNCYFMSNSQRNWHDSITACKEVGAQLVVIKSAEEQNFLQLQSSRSNRFTWMGLSDLNQEGTWQWVDGSPLLPSFKQYWNRGEPNNVGEEDCAEFSGNGWNDDKCNLAKFWICKKSAASCSRDEEQFLSPAPATPNPPPA
notes: DC-SIGN, full extracellular domain (ECD), residues 70-404; the fragment was inserted in pET15b via NdeI and BamHI, and the protein was purified on mannose-Sepharose, not by a tag; The results call it 'tetrameric full-length DC-SIGN', the methods give the ECD 70-404; also called DC-SIGN tetramer; tetrameric DC-SIGN
stoichiometry N: 4
